Data published in patent US20260034246A1.

Legend:
[1] = biological target: Mouse Complement C5 Protein (mouse) (UniProt P06684)
[2] = biological target: Cyno Complement C5 Protein (cynomolgous macaque)
[3] = biological target: Human Complement C5 Protein (human) (UniProt P01031)

Substance: recombinant C5 inhibitor (C5I) protein (from UniProt Q5YD59 19-168)
- Kd [1]: 6.28 nM
- Kd [2]: 5.09 nM
- Kd [3]: 10.2 nM
